US20090275511A1 (IPSEN PHARMA S A S, published 2009)
Numbered stars: 1 amine (or outer) side, 2 acyl side, 3 side chain; on linkers, the order of the positions; unused ones are H or OH. Square brackets hold non-standard residues; d marks the D form. Glu(NH-hexyl) = N5-hexyl-L-glutamine (glutamic acid gamma-hexylamide), CCCCCCNC(=O)CC[C@H](N[*:1])C(=O)[*:2]; 1‑Apc = not defined here; Aib = CC(C)(N)C(=O)O

Biological target: T1, human GH secretagogue receptor (human, UniProt Q92847 1-366)
T1 construct: whole, on cells; the Ca2+ assay used the whole cells; also called hGHS-R; ghrelin receptor
Assay: competition with 0.05 nM (125I)ghrelin on membranes of CHO-K1 cells expressing hGHS-R, filtration
Experimental: The homogenates were washed twice by centrifugation (39,000 g/10 minutes) and the final pellets were resuspended in about 50 mM Tris-HCl containing 2.5 mM MgCl₂ and 0.1% bovine serum albumin (BSA). For the selected assay, aliquots of approximately 0.4 ml were incubated with 0.05 nM (¹²⁵I)ghrelin (˜2000 Ci/mmol; Perkin Elmer Life Sciences®, Boston, Mass., U.S.A.) with and without 0.05 ml of unlabeled competing test peptide.

T1 sequence (Q92847 whole entry): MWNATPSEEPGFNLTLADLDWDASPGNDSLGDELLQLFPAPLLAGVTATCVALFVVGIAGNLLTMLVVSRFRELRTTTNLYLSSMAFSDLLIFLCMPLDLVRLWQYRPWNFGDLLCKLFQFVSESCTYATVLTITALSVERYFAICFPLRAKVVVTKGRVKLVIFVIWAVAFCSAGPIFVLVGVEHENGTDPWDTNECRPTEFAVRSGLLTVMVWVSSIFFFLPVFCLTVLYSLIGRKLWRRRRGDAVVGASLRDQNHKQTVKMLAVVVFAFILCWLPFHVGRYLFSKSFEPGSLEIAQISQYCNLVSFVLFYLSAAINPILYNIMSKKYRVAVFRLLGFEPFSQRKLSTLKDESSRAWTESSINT

Ki | Binder
0.04 µM | Ac-[1‑Apc][Aib][Glu(NH-hexyl)]FLSPEH[Aib]RVQQRKESKKPPAKLQPR-NH2 (reading uncertain, Synthetic analog of human ghrelin(1-28)) [(Ac-1-Apc^1, Aib^2,10, Glu(NH-hexyl)^3)hGhrelin(1-28)-NH2]
0.37 µM | XXEFLSPEHXRVQQRKESKKPPAKLQPR (HELM PEPTIDE1{[ac].[O=C(C1CCN([*:1])CC1)[*:2]].[Aib].[CCCCCCNC(=O)CC[C@H](N[*:1])C(=O)[*:2]].F.L.S.P.E.H.[Aib].R.V.Q.Q.R.K.E.S.K.K.P.P.A.K.L.Q.P.R.[am]}$$$$V2.0; SMILES CCCCCCNC(=O)CC[C@H](NC(=O)C(C)(C)NC(=O)C1CCN(C(C)=O)CC1)C(=O)N[C@@H](Cc1ccccc1)C(=O)N[C@@H](CC(C)C)C(=O)N[C@@H](CO)C(=O)N1CCC[C@H]1C(=O)N[C@@H](CCC(=O)O)C(=O)N[C@@H](Cc1c[nH]cn1)C(=O)NC(C)(C)C(=O)N[C@@H](CCCNC(=N)N)C(=O)N[C@H](C(=O)N[C@@H](CCC(N)=O)C(=O)N[C@@H](CCC(N)=O)C(=O)N[C@@H](CCCNC(=N)N)C(=O)N[C@@H](CCCCN)C(=O)N[C@@H](CCC(=O)O)C(=O)N[C@@H](CO)C(=O)N[C@@H](CCCCN)C(=O)N[C@@H](CCCCN)C(=O)N1CCC[C@H]1C(=O)N1CCC[C@H]1C(=O)N[C@@H](C)C(=O)N[C@@H](CCCCN)C(=O)N[C@@H](CC(C)C)C(=O)N[C@@H](CCC(N)=O)C(=O)N1CCC[C@H]1C(=O)N[C@@H](CCCNC(=N)N)C(N)=O)C(C)C, Synthetic analog of human ghrelin(1-28)) [(Ac-Inp^1, Aib^2,10, Glu(NH-hexyl)^3)hGhrelin(1-28)-NH2]
